Laboratory results published in publication PMC5385344, “Large Diversity of Functional Nanobodies from a Camelid Immune Library Revealed by an Alternative Analysis of Next-Generation Sequencing Data” (Frontiers in Immunology, 2017).

Legend:
[1] = biological target: Recombinant extracellular domain of human RON (rhRON) (human, UniProt Q04912)
[2] = biological target: full-length human RON expressed on HEK293T cells (HEK293T-hRON) (Homo sapiens, UniProt Q04912)
Chain of full-length human RON expressed on HEK293T cells (HEK293T-hRON) (Q04912 25-1400): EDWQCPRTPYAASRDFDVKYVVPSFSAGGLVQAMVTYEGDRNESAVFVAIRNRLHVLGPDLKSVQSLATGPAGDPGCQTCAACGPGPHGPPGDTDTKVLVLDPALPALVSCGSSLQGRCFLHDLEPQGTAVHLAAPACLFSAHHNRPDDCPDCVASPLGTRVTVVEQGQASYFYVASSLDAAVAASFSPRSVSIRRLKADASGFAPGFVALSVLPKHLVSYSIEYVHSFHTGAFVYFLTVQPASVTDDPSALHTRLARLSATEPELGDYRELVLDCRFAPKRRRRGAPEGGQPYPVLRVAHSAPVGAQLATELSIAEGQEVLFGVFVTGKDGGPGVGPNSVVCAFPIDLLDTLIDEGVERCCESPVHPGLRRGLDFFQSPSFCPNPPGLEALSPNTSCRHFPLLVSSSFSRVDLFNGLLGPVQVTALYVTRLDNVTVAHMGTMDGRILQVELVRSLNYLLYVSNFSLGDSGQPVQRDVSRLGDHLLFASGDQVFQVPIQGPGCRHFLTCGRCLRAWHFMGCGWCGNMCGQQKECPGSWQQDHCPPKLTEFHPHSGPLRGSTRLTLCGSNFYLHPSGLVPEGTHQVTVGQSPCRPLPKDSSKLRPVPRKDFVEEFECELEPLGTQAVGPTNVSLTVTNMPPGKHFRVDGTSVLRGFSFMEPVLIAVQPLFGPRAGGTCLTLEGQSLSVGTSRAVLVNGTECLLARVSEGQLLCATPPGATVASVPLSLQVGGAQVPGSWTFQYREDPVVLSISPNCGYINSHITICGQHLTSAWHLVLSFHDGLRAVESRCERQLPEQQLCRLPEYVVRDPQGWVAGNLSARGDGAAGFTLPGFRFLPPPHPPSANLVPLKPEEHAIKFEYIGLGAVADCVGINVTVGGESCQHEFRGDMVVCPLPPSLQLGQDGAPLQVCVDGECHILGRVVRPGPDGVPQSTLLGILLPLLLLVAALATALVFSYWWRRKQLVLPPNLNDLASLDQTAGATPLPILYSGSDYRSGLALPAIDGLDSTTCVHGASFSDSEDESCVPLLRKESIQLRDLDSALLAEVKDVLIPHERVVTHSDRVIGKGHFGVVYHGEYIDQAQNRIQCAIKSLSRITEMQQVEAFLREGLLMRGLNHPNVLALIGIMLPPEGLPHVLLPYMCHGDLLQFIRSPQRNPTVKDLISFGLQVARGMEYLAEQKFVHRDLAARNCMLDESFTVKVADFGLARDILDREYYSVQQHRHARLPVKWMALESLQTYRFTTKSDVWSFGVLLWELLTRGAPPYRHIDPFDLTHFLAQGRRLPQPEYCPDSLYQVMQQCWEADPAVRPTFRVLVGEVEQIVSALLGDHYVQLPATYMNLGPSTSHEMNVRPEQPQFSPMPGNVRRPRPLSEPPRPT

Chain of Recombinant extracellular domain of human RON (rhRON) (Q04912 25-957): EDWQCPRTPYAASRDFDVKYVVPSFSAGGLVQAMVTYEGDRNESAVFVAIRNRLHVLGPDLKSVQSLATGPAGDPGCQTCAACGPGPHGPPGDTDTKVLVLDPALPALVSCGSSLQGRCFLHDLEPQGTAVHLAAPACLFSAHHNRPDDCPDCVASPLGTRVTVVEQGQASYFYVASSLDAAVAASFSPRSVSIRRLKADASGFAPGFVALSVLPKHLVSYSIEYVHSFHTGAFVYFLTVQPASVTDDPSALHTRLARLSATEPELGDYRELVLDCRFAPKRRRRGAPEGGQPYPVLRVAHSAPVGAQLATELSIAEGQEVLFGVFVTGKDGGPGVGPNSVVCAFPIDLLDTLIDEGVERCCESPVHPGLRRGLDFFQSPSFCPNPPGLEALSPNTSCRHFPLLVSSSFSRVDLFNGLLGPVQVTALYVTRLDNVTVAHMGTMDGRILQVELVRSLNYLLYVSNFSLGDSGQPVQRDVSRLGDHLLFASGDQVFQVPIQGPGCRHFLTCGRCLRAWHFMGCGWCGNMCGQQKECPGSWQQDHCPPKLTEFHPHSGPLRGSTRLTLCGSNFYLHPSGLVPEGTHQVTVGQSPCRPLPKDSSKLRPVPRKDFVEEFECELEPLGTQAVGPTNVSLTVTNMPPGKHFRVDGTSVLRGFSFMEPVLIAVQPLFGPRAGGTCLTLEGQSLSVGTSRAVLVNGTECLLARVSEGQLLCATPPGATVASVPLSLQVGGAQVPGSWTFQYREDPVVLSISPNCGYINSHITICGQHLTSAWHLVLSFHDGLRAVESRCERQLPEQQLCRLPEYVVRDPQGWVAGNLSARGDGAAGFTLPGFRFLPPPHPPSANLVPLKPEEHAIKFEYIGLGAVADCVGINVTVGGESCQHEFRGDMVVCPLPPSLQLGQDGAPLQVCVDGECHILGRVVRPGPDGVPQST

Binder | binding result [1] | binding result [2]
KY704045 (VHH) VHH: EVQLVESGGGLVQAGGSLRLSCAASGRTFSSYIMAWFRQAPGKERDVVATVSWGGETTYYADSVKGRFTISRDNAKNTVYLQMNSLKPEDTAVYYCAASHARGYWHTPFTVADVGSWGQGTLVTVSS | binds | binds
11G07 (VHH) VHH: EVQLVESGGGLVQAGGSLRLSCAASGRSFSGDTMGWFLQAPGKEREFVAGINWSSRSTNYADSVKGRFTISRDNAKNTVYLQMNTLKPEDTAVYYCAAGPPSPYIYSRPDLYTYWGQGTQVTVSS | binds | binds
KY704038 (VHH) VHH: EVQLVESGGGLVQAGGSLRLSCASSGIAFRLRTMDWYRQAPGNQREWVATITSDYSTDYADSVKGRFTISRDNAQNTVYLQMNSLKPEDTAVYYCHAGGVVWGQGTLVTVSS | binds | binds
KY704047 (VHH) VHH: EVQLVESGGGLVQAGGSLRLSCAASGIPFSRYHMGWFRQAPGKEREFVASVSWSGQNTYYADSVKGRFTISRDNAKNTGNLQMNSMKPEDTAVYYCAAGSRYYTDIIPNYYRYWGQGTLVTVSS | binds | binds
11G06 (VHH) VHH: EVQLVESGGGLVQPGGSLRLSCAASGSIFSVNAMGWYRQAPGKQRELVASMVSGRSPAYADSVKGRFTISRDNAENTVYLQMNSLKPEDTAVYYCNIKGEYYSRSQYNVWGQGTQVTVSS | binds | binds
KY704044 (VHH) VHH: EVQLVESGGGLVQAGGSLRLSCAASGRTSSIYRMGWFRQAPGKERDIVASIHWSGGRWFYADFVKGRFTISRDNAENTVYLQMSSLKPEDTAVYYCAARTPGTLTYDYWGQGTLVTVSS | binds | binds
11F03 (VHH) VHH: EVQLVESGGGLVQAGGSLRLSCVVSGIYFRLYTMNWYRQALGKQREYVAMITNDGSTNYGASIKGRFTISRDNAKNTVYLQMNNLNPEDTAVYYCNAHDYWGQGTQVTVSS | binds | binds
KY704039 (VHH) VHH: EVQLVESGGGLVQAGGSLRLTCAASGNFFNIITMGWFRQAPGKERELVAVDTAGRSISYLDSVKGRFTIVRDNAKNTVILEMNSLTPEDTAVYYCYATGHRSVTGGIYVTWGQGTLVTVSS | binds | binds
KY704043 (VHH) VHH: EVQLVESGGGLVQAGGSLRLSCVASGRAYRNYVMGWFRQGPGKEREFVATIRPDDGSILSSNSVRGRITISSDNAKNTVYLQMSTLAPEDTAIYYCAYGTTPSMLARKYDYWGQGTLVTVSS | binds | binds
KY704041 (VHH) VHH: EVQLVESGGGLVQAGGSLRLSCAASGRAFSSYAMGWFRQAPGKEREFVAVISGRGGVTYYAASVKGRFTISRDNAKNTVLLQMSSLKPEDTGVYYCAAGPNIGVLTDPAYSGGDWGQGTLVTVSS | binds | binds
KY704042 (VHH) VHH: EVQLVESGGGLVQAGGSLRLSCAASGRSFGSYHMGWFRQALGKEREFVAAISSGGGLLDYEDSVKGRFTISRDNAKNTVYLQMNSLTPEDTAVYYCAATARVWGSWFTSDYDYWGQGTLVTVSS | binds | binds
11G10 (VHH) VHH: EVQLVESGGGSVQAGGSLRLSCAASGRVAMGWFRQAPGKEREFVAAISASGGSSSYADSVKGRFTISRDSAKSTVYLQMNSLEPEDTAVYYCAARARTLGWVSADVSAYDYWGQGTQVTVSS | binds | binds
